The data set concerns the target T1, ARID4B TD121 E50L (Homo sapiens, UniProt Q4LE39 1-121, E50L).
T1 sequence: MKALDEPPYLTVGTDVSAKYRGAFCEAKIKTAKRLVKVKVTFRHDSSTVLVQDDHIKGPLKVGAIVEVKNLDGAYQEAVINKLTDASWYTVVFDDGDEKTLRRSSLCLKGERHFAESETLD
In words: EMSA; stronger than wild-type ARID4B TD121; 50 mM Tris-HCl pH 7.6, 50 mM NaCl (buffer A); ITC 25 C; EMSA 4 C, 12 uM DNA, 8% native gel in TBE; NMR titration by 1H-15N HSQC (temperature not stated for titration; buffer A also defined elsewhere as 20 mM phosphate, 100 mM NaCl, pH 7.0). The conditions noted are these: protein: recombinant; 5' overhang 1 nt on each strand (17 bp paired).

B1: dsDNA1 (dsDNA)
DNA 1: CTCAGGTCAAAGGTCACG
DNA 2: TCGTGACCTTTGACCTGA
With B1, the binding result is listed as “binds”.

(Values after publication PMC8038949, “Structural basis for the DNA-binding activity of human ARID4B Tudor domain”.)
